Source: the RNAGym collection of RNA variant scans (doi:10.7554/elife.80360)

B1: Twister Ribozyme (parent)
chain: AACACUGCCAAUGCCGGUCCCAAGCCCGGAUAAAAGUGGAGGGGGCGG

Variants of: B1
Test: self-cleavage, relative activity (ratio to wild type); higher = more cleavage; co-transcriptional

Compared with G13A G36U, G43C G48A is higher in self-cleavage: 0.139 for the first, 0.198 for the second.

Going from C25G C26A to C9U U31C, the self-cleavage rises from 0.0961 to 0.708.

Going from A35U C46U to C5A A30G, the self-cleavage falls from 0.894 to 0.491.

Compared with U12G A35U, G7A C15U is lower in self-cleavage: 0.848 for the first, 0.377 for the second.

Compared with C9A C20A, A11C A34U is higher in self-cleavage: 0.0653 for the first, 0.785 for the second.

Compared with A32C G36C, A10G C15U is higher in self-cleavage: 0.283 for the first, 0.902 for the second.

Compared with C15G G47U, G17U G45C is higher in self-cleavage: 0.0543 for the first, 0.183 for the second.

Compared with U12C G29C, C26U C27A is lower in self-cleavage: 0.877 for the first, 0.102 for the second.

First: U6A G43C
Second: G41C G47A
The self-cleavage of the first is lower: 0.172 for the first, 0.235 for the second.

Going from A32C A35C to A35U G43A, the self-cleavage falls from 0.911 to 0.25.

G28C G47C and C9A G16U are the same in self-cleavage: 0.254 for the first, 0.254 for the second.

Compared with G24U G48C, A1G U31G is higher in self-cleavage: 0.127 for the first, 0.533 for the second.

Going from U6A A30G to C20G G45C, the self-cleavage falls from 0.884 to 0.136.

First: A23G C26A
Second: U6G A34U
The self-cleavage of the first is lower: 0.0747 for the first, 0.493 for the second.

First: C15U G48C
Second: C26G G47A
The self-cleavage of the first is higher: 1.07 for the first, 0.177 for the second.

First: G38U C46U
Second: C3U G29A
The self-cleavage of the first is higher: 0.864 for the first, 0.32 for the second.

Going from U6G A40C to U6C C27U, the self-cleavage rises from 0.0854 to 0.275.

Going from C14A G45A to A2C G43C, the self-cleavage falls from 0.801 to 0.0309.

Compared with C15A C20U, A11U C25A is lower in self-cleavage: 0.397 for the first, 0.139 for the second.

Going from C8G A30U to C8A G13C, the self-cleavage falls from 0.409 to 0.0783.

Compared with A2U A32U, U12C U31A is higher in self-cleavage: 0.722 for the first, 0.78 for the second.

Going from U12A A30G to A22U G47U, the self-cleavage falls from 1.01 to 0.67.

Compared with A10U A22U, G17A G28A is lower in self-cleavage: 0.829 for the first, 0.296 for the second.

Compared with A1U C5G, G29A G47U is higher in self-cleavage: 0.0467 for the first, 0.765 for the second.

Going from U12A G45A to A30G G44U, the self-cleavage falls from 1.09 to 0.887.

Compared with U6C A35G, A1G G16A is lower in self-cleavage: 0.832 for the first, 0.5 for the second.

Compared with U31C G42U, G17A G41A is lower in self-cleavage: 0.407 for the first, 0.148 for the second.

Going from G17A G41U to G29U A32C, the self-cleavage rises from 0.169 to 0.836.

Compared with C15U C21A, C26A G42C is lower in self-cleavage: 0.138 for the first, 0.131 for the second.

First: A23C C25A
Second: C20A G45A
The self-cleavage of the first is lower: 0.066 for the first, 0.144 for the second.

Compared with G17C G36C, G16U C26G is higher in self-cleavage: 0.0812 for the first, 0.136 for the second.

Going from G16U C26A to A2G A30U, the self-cleavage falls from 0.45 to 0.256.

First: A4C U31C
Second: C9G G28C
The self-cleavage of the first is lower: 0.249 for the first, 0.495 for the second.

Going from A2C C8G to A11U U31G, the self-cleavage rises from 0.0519 to 0.893.

Compared with A11U U31A, A4U A34U is lower in self-cleavage: 0.918 for the first, 0.068 for the second.

Compared with U18C G42C, A2C A23C is lower in self-cleavage: 0.114 for the first, 0.0233 for the second.

Going from G38C G41U to G7U A11G, the self-cleavage falls from 0.304 to 0.131.

Compared with C9A G42U, U6A C9A is higher in self-cleavage: 0.149 for the first, 0.153 for the second.

Going from G39A G44U to A1U U12A, the self-cleavage falls from 0.322 to 0.0685.

Compared with C15G G48C, A11U G17C is higher in self-cleavage: 0.0718 for the first, 0.111 for the second.

First: G24A G29A
Second: C19U A34U
The self-cleavage of the first is lower: 0.155 for the first, 0.56 for the second.

Compared with A2U G29A, G28A A33G is higher in self-cleavage: 0.474 for the first, 0.781 for the second.

First: U6G A10C
Second: A23U C27U
The self-cleavage of the first is lower: 0.136 for the first, 0.305 for the second.

Going from U6C G28C to C8G G45A, the self-cleavage falls from 0.215 to 0.207.

Going from A4G G44C to C8U A33C, the self-cleavage falls from 0.645 to 0.447.

Compared with U31C A35G, A1G C8A is lower in self-cleavage: 0.682 for the first, 0.22 for the second.

First: G38U A40G
Second: C8U U31C
The self-cleavage of the first is lower: 0.101 for the first, 0.713 for the second.

Going from C5G G45A to U6C G38A, the self-cleavage falls from 0.475 to 0.423.

Compared with C20G A30U, C19G A33C is lower in self-cleavage: 0.165 for the first, 0.0963 for the second.

First: A2C A22C
Second: C5U G13U
The self-cleavage of the first is lower: 0.0812 for the first, 0.157 for the second.

Going from C9A C19U to C19G G44U, the self-cleavage rises from 0.197 to 0.29.

Going from A10U to C9U C20U, the self-cleavage falls from 0.982 to 0.264.

Going from A2G C25A to C21G G28A, the self-cleavage falls from 0.127 to 0.124.

First: A2G C8U
Second: G24C
The self-cleavage of the first is higher: 0.194 for the first, 0.102 for the second.

Going from A1U C21G to C5U G43U, the self-cleavage rises from 0.0652 to 0.2.

First: U6G G48U
Second: A11U G41A
The self-cleavage of the first is lower: 0.308 for the first, 0.747 for the second.

First: G7A G24C
Second: G7A G28C
The self-cleavage of the first is lower: 0.0973 for the first, 0.227 for the second.

Going from G13C C21G to A4C G24C, the self-cleavage falls from 0.0833 to 0.078.

First: G17U C19U
Second: A10G G45A
The self-cleavage of the first is lower: 0.143 for the first, 1.13 for the second.

Compared with A2G G47U, C9G G44U is higher in self-cleavage: 0.117 for the first, 0.427 for the second.

Compared with A40C G41U, C21A G47U is lower in self-cleavage: 0.157 for the first, 0.117 for the second.

Compared with U18C U31G, C9G A33C is higher in self-cleavage: 0.477 for the first, 0.548 for the second.

Going from U12A G36C to A2G C3G, the self-cleavage falls from 0.693 to 0.583.

Going from A30U G45U to C3G G38A, the self-cleavage falls from 0.798 to 0.559.

Compared with G17A G42C, A32U G38U is higher in self-cleavage: 0.192 for the first, 0.94 for the second.

First: U31C G45A
Second: A4U C14A
The self-cleavage of the first is higher: 0.965 for the first, 0.225 for the second.

Going from A32U G44A to C19G A23G, the self-cleavage falls from 0.919 to 0.0717.

Compared with U6C A33G, C14A C20A is lower in self-cleavage: 0.429 for the first, 0.165 for the second.

Compared with G38C G42C, G16U G44A is higher in self-cleavage: 0.238 for the first, 1.01 for the second.

Going from C5U G38C to C5U G38U, the self-cleavage falls from 0.581 to 0.503.

Going from U12G G38A to A2G A11C, the self-cleavage falls from 0.771 to 0.206.

First: A1U G45U
Second: A10U U31A
The self-cleavage of the first is lower: 0.0565 for the first, 0.694 for the second.

Compared with C15U A35C, C5G A11C is lower in self-cleavage: 0.863 for the first, 0.298 for the second.

Compared with A11G C14G, C14U A32U is higher in self-cleavage: 0.133 for the first, 1.04 for the second.

Going from A10G G42A to A1C C26A, the self-cleavage falls from 0.509 to 0.171.

First: A35U G48U
Second: A4G A34G
The self-cleavage of the first is higher: 1.17 for the first, 0.61 for the second.

Going from C14A G24C to C15A G17U, the self-cleavage rises from 0.0765 to 0.0769.

Going from G29A C46A to A10G U12A, the self-cleavage rises from 0.922 to 1.03.

Compared with C5A G48U, G13C U37C is lower in self-cleavage: 0.577 for the first, 0.116 for the second.

Going from A23G U37G to A40C G48C, the self-cleavage rises from 0.17 to 0.343.

First: C14G C25U
Second: G7A G41A
The self-cleavage of the first is lower: 0.0566 for the first, 0.122 for the second.

First: G7A G47A
Second: C8A C27A
The self-cleavage of the first is higher: 0.271 for the first, 0.0935 for the second.

Compared with G24A G38C, C19G G48U is higher in self-cleavage: 0.106 for the first, 0.218 for the second.

C3G G39U showed a self-cleavage of 0.107.
